In US20180333482A1 (LOYOLA UNIVERSITY OF CHICAGO, published 2018):

Biological target: the molecule itself
Assay: dynamic light scattering, self-association

B1: recombinant wild-type MHV nsp15 protein, SUMO-fusion protein purified from E. coli (enzyme)
chain: SLENVVYNLVNAGHFDGRAGELPCAVIGEKVIAKIQNEDVVVFKNNTPFPTNVAVELFAKRSIRPHPELKLFRNLNIDVCWSHVLWDYAKDSVFCSSTYKVCKYTDLQCIESLNVLFDGRDNGALEAFKKCRNGVYINTTKIKSLSMIKGPQRADLNGVVVEKVGDSDVEFWFAVRKDGDDVIFSRTGSLEPSHYRSPQGNPGGNRVGDLSGNEALARGTIFTQSRLLSSFTPRSEMEKDFMDLDDDVFIAKYSLQDYAFEHVVYGSFNQKIIGGLHLLIGLARRQQKSNLVIQEFVTYDSSIHSYFITDENSGSSKSVCTVIDLLLDDFVDIVKSLNLKCVSKVVNVNVDFKDFQFMLWCNEEKVMTFYPRLQ
notes: domain: nsp15; also called WT nsp15; WT MHV Nsp15; not shown: His-SUMO tag from the pET-His-SUMO vector
binding result: binds
